According to US20220265709A1:

Key:
[1] = biological target: Fc-fused Cynomolgus BCMA (ACRO Biosystems, Cat. #: BCA-C5253) (cynomolgus); experiment: SPR (BIAcore T200) affinity ranking; crude sdAb captured via tag, antigen at 100 nM
[2] = biological target: His-tagged human BCMA (ACRO Biosystems, Cat. #: BCA-H522y) (human); experiment: as above
Chain of His-tagged human BCMA (ACRO Biosystems, Cat. #: BCA-H522y) (human) (Q02223 1-54): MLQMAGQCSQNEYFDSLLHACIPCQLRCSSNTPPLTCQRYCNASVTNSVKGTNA

Row | Binder | Kd [1] | koff [1] | kon [1] | Kd [2] | koff [2] | kon [2]
1 | anti-BCMA sdAb BCMA10 (VHH, part only, affinity tag) VHH: QVQLAESGGGLVQPGGSLRLSCAGSGFTFSSYDMNWVRQAPGKGLERVSTTFNGDDGTNYADSVLGRFTASRDKAKNTLYLQMNSLKTEDTAVYYCAAAVPGVDWYDTTRYKYWGQGTQVTVSS | 50 nM | 0.04 s⁻¹ | 790000 M⁻¹ s⁻¹ | 47 nM | 0.13 s⁻¹ | 2.8e+06 M⁻¹ s⁻¹
2 | anti-BCMA sdAb BCMA7 (VHH, part only, affinity tag) VHH: QVHLMESGGGSVQSGGSLRLSCAASGYTYSSYCMAWFRQAPGKEREGVAAIASDGSTYYTDSVKGRFTISQDNAKNTLYLQMNSLKPEDTAMYYCGADPVGCSWPDYWGQGTQVTVSS | 43 nM | 0.056 s⁻¹ | 1.3e+06 M⁻¹ s⁻¹ | 46 nM | 0.1 s⁻¹ | 2.3e+06 M⁻¹ s⁻¹
3 | anti-BCMA sdAb BCMA9 (VHH, part only, affinity tag) VHH: QVQLVESGGGSVQAGGSLRLSCKSSGAPYSSNCMAWFRQTPGKGREGVATIDLASHDTYYADSVKGRFTISRDNAKNTMYLQMNSLKPEDTAMYYCAATSWWPCTTFNGGYANWGQGTQVTVSS | 2.4 nM | 0.0015 s⁻¹ | 650000 M⁻¹ s⁻¹ | 8.5 nM | 0.42 s⁻¹ | 5e+07 M⁻¹ s⁻¹
4 | anti-BCMA sdAb BCMA12 (VHH, part only, affinity tag) VHH: QVHLVESGGGSVQAGGSLRLSCKSSGATYSSNCMAWFRQTPGKEREGVATIDLASHGTYYADSVKGRFTISRDNAKNTMYLQMSGLRPEDTALYYCAATSWWPCTTFNGGYASWGQGTQVTVSS | 4.3 nM | 0.004 s⁻¹ | 940000 M⁻¹ s⁻¹ | 23 nM | 0.025 s⁻¹ | 1.1e+06 M⁻¹ s⁻¹
5 | anti-BCMA sdAb BCMA1 (VHH, part only, affinity tag) VHH: QVQLVESGGGSVQAGGSLRLSCKASGAIYDTNCMAWFRQTPGKEREGVATIDLGNPITYYADSVKGRFTISRDNAKNTMYLQMNSLEPEDTAMYYCAATSWWPCTTFNAGYANWGQGTQVTVSS | 0.64 nM | 0.00043 s⁻¹ | 670000 M⁻¹ s⁻¹ | 10 nM | 0.29 s⁻¹ | 2.9e+07 M⁻¹ s⁻¹
6 | anti-BCMA sdAb BCMA13 (VHH, part only, affinity tag) VHH: QVHLVESGGGSVQAGGSLRLSCKASGAIYDTNCMAWFRQTPGKEREGVATIDLGNPITYYADSVKGRFTISRDNAKNTMYLQMNSLKPEDTAMYYCAATSWWPCPANNVGYANWGQGTQVTVSS | 13 nM | 0.018 s⁻¹ | 1.4e+06 M⁻¹ s⁻¹ | 77 nM | 0.053 s⁻¹ | 690000 M⁻¹ s⁻¹
7 | anti-BCMA sdAb BCMA6 (VHH, part only, affinity tag) VHH: QMQLVESGGGSVQAGGSLRLSCTASGYTFDDSAMGWYRQAPGNECELVSSISSDGSTYYSDSVKGRFTISQDNAKNTMYLQMNSLKPEDTAVYSCAASSGEDGGSWSTPCHFFGYWGQGTQVTVSS | 0.83 nM | 0.00091 s⁻¹ | 1.1e+06 M⁻¹ s⁻¹ | 4.9 nM | 0.026 s⁻¹ | 5.4e+06 M⁻¹ s⁻¹
8 | anti-BCMA sdAb BCMA8 (VHH, part only, affinity tag) VHH: QVQLVESGGGSVQAGGSLRLSCAASGGTRSWNYMAWFRQAPGKEREDVAIIDNVGSTRYADSVKGRFTISQDTAQNTLYLQMNSLKPEDTAMYYCAARVSWCEDPPCGFDYWGQGTQVTVSS | 13 nM | 560 s⁻¹ |  | 48 nM | 0.37 s⁻¹ | 7.8e+06 M⁻¹ s⁻¹
9 | anti-BCMA sdAb BCMA11 (VHH, part only, affinity tag) VHH: QVQLVESGGGVVQPGGSLRLSCAASGFAFSNYAMTWGRQAPGQRLEWVSTIDSGGGSTTYSDSVKGRFTISRDNAKNTLYLQLNNLKSEDTAVYYCSENVDCNGDYCYRANYWGQGTQVTVSS | 16 nM | 0.007 s⁻¹ | 450000 M⁻¹ s⁻¹ | 53 nM | 0.009 s⁻¹ | 170000 M⁻¹ s⁻¹
